Experimental data taken from patent US20260209362A1 (VIB VZW, published 2026).

T1: biotinylated recombinant human IL-12Rβ2 (produced in-house) (human, UniProt Q99665 24-622, random biotinylated)
T1 construct: also called hIL-12RB2; hIL12RB2
T1 sequence: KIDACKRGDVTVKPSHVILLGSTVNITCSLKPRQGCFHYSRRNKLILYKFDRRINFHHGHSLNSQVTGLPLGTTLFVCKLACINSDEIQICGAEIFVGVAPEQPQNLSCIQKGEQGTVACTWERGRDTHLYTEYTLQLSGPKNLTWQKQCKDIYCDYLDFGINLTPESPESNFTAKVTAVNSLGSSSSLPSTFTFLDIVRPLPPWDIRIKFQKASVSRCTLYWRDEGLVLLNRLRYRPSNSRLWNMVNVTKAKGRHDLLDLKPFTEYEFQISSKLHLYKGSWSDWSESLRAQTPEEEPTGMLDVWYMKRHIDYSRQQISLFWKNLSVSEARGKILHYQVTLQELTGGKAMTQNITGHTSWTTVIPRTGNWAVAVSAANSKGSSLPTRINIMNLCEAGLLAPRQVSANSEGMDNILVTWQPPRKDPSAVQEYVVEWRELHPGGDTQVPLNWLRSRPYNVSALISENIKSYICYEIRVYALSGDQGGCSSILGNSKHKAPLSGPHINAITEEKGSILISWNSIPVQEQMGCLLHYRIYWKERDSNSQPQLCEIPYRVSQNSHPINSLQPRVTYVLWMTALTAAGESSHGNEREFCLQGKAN

T2: biotinylated recombinant mouse IL-12Rβ2 (produced in-house) (mouse, UniProt P97378 24-637, random biotinylated)
T2 construct: also called mIL-12RB2; mIL12RB2
T2 sequence: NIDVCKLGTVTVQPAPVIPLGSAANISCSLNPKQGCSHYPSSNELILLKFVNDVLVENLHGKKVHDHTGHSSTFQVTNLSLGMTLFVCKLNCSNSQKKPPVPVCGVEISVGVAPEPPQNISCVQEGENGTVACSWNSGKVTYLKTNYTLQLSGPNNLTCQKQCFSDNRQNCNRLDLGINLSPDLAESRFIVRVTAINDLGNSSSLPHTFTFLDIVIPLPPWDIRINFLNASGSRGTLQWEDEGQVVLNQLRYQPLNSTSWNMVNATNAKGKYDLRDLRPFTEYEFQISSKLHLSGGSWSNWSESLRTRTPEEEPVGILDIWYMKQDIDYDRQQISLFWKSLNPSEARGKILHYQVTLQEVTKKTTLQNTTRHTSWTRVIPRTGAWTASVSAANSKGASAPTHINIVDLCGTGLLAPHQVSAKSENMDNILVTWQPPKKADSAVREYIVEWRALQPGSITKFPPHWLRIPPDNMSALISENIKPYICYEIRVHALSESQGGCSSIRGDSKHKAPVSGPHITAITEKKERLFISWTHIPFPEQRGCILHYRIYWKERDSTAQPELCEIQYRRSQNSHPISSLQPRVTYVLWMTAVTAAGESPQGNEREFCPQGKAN

T3: human IL-12Rβ2 expressed on cells (human, UniProt Q99665 24-862)
T3 construct: HEK293T cells transiently transfected with a human IL-12Rβ2 plasmid (Genscript OHu21785); also called hIL-12RB2
T3 sequence: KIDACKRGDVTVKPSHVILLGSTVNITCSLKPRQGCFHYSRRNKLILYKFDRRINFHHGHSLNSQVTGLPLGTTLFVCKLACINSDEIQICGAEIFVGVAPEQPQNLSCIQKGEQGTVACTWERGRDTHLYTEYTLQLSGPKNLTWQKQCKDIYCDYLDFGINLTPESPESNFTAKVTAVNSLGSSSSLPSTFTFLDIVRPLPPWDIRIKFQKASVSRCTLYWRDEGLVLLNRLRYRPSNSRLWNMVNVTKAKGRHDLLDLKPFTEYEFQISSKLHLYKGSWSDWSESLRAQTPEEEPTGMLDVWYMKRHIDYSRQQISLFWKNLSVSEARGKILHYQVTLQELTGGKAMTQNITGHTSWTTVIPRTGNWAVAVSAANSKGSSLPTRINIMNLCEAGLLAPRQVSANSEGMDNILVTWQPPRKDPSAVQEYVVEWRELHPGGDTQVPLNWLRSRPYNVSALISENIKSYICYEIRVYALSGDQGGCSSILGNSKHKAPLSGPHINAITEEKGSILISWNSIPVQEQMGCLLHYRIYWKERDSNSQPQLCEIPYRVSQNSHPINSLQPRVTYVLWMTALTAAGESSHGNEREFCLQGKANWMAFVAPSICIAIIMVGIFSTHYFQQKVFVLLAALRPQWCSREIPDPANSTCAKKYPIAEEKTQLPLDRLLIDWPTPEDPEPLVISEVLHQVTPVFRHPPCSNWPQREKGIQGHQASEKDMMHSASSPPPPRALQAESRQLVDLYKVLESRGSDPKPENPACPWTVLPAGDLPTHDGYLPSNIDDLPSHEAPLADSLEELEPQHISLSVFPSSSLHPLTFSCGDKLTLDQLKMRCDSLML

T4: biotinylated recombinant mouse IL-12Rβ2 (mouse, UniProt P97378 24-637, random biotinylated)
T4 construct: Recombinant protein produced in-house, biotinylated; also called mIL-12RB2; mouse IL-12RB2
T4 sequence: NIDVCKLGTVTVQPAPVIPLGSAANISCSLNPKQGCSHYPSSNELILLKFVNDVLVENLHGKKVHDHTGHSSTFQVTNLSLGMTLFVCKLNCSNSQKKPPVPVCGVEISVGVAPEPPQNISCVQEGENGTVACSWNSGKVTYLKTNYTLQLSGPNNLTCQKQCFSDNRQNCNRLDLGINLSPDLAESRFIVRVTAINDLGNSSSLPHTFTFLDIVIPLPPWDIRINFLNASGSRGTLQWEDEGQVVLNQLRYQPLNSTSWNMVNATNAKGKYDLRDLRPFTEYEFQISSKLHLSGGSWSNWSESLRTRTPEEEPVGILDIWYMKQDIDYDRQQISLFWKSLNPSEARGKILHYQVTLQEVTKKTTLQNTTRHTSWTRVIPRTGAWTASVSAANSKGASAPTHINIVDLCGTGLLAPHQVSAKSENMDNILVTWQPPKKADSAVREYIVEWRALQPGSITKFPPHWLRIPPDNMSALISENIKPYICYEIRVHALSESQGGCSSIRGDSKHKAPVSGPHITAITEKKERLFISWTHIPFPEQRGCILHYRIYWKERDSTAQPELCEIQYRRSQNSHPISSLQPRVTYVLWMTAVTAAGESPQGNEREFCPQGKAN

T5: biotinylated recombinant human IL-12Rβ2 (human, UniProt Q99665 24-622, random biotinylated)
T5 construct: Recombinant protein produced in-house, biotinylated; also called hIL-12RB2; human IL-12RB2
T5 sequence: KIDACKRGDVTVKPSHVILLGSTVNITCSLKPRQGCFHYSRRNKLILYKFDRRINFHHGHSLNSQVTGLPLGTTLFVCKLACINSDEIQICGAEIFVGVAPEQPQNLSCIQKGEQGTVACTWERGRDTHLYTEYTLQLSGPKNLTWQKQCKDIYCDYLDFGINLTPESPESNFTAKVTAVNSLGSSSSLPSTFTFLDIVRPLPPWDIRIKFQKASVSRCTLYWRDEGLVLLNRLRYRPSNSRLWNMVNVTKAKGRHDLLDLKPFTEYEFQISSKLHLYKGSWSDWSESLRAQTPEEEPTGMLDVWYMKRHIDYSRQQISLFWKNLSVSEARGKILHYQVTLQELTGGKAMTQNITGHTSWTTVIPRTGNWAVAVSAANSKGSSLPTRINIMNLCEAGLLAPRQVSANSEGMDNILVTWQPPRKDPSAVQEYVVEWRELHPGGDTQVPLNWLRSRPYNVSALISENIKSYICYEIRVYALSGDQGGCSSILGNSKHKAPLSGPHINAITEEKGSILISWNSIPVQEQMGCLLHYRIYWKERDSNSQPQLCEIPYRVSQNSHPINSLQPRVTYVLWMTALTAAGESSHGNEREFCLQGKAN


Legend:
[1] = target: T1, biotinylated recombinant human IL-12Rβ2 …; test: ELISA, P.E. VHH on biotinylated hIL-12RB2, signal ratio to control well
[2] = target: T1, biotinylated recombinant human IL-12Rβ2 …; test: BLI (Octet), P.E. VHH on immobilised biotinylated hIL-12RB2
[3] = target: T2, biotinylated recombinant mouse IL-12Rβ2 …; test: ELISA, P.E. VHH on biotinylated mIL-12RB2, signal ratio to control well
[4] = target: T3, human IL-12Rβ2 expressed on cells; test: flow cytometry, P.E. VHH on HEK293T cells transiently expressing hIL-12RB2
[5] = target: T1, biotinylated recombinant human IL-12Rβ2 …; test: BLI (Octet), P.E. VHH on immobilised biotinylated hIL-12RB2, 1:1 model
[6] = target: T2, biotinylated recombinant mouse IL-12Rβ2 …; test: ELISA, P.E. VHH on biotinylated mIL-12RB2
[7] = target: T4, biotinylated recombinant mouse IL-12Rβ2; test: ELISA, periplasmic extract on biotinylated mIL-12Rβ2, signal over control wells
[8] = target: T4, biotinylated recombinant mouse IL-12Rβ2; test: BLI (Octet), periplasmic extract on biotinylated mIL-12Rβ2 on streptavidin tips, 1:1 model
[9] = target: T5, biotinylated recombinant human IL-12Rβ2; test: BLI (Octet), periplasmic extract on biotinylated hIL-12Rβ2 on streptavidin tips, 1:1 model
[10] = target: T4, biotinylated recombinant mouse IL-12Rβ2; test: BLI (Octet), periplasmic extract on biotinylated mIL-12Rβ2 on streptavidin tips
[11] = target: T5, biotinylated recombinant human IL-12Rβ2; test: BLI (Octet), periplasmic extract on biotinylated hIL-12Rβ2 on streptavidin tips
[12] = target: T5, biotinylated recombinant human IL-12Rβ2; test: ELISA, periplasmic extract on biotinylated hIL-12Rβ2, signal over control wells

Binder	ELISA hIL12RB2/control [1]	Response [2]	ELISA mIL12RB2/control [3]	dMFI [4]	koff [5] [s⁻¹]	binding result [6]	ELISA binding mIL-12RB2/control [7] [ratio]	koff [8] [s⁻¹]	koff [9] [s⁻¹]	Response [10]	Response [11]	ELISA binding hIL-12RB2/control [12] [ratio]
anti-IL-12Rβ2 VHH clone 3CAHS41 (VHH, not shown: small tags and cut ends, tested as periplasmic extract) VHH: QVQLQESGGGLVQAGDSLRLSCAASGRTFDTYIVGWFRQAPGKEREFVSALSWSDDTTIRDDSLRGRFTISRDNAKNTVYLLMNSLKPEDTAVYYCAAKAKPPAATWSSYRNREWYDYWGQGTQVTVSS	8.77	0.609	1.35	971	0.00441	no binding						
anti-IL-12Rβ2 VHH clone 2CRH82 (VHH, not shown: small tags and cut ends, tested as periplasmic extract) VHH: QVQLQESGGGLVQAGGSLRLSCAASARTESMYAMAWFRQAPGKEREIVAGIIQSGGTTYISDYMKGRFSIDRGNAENTVYLQMDSLKPEDTAVYSCAAKVSSGTPSDIQISQSRWYDHWGQGTQVTVSS	16.1	0.426	1.77	744	0.00274	no binding						
anti-IL-12Rβ2 VHH clone 21058 (VHH, not shown: small tags and cut ends, tested as periplasmic extract; also called 3CRHM49) VHH: QVQLQESGGGLVQAGGSLRLSCAASGRTFSNYAMAWFRQAPGTEREFVAGLSGSGGDTAFYDNSVMGRFTISRDSAKNTMWLQINNLKPEDTAVYYCAAATHVVVSYGLVRRRGTYDYWGQGTQVTVSS							41.2	0.00583	0.00619	1.15	1.54	3.2
anti-IL-12Rβ2 VHH clone 21053 (VHH, not shown: small tags and cut ends, tested as periplasmic extract; also called 3CRHM14) VHH: QVQLQESGGGLVQAGGSLRLSCAASGRTFSNYAMAWFRQAPGTEREFVAGLSGSGGDTEFYDDSVKGRFAISRDSAKNTVWLQMNSLKPEDTAVYYCAAATHVVVHYGLVRRRGTYDYWGQGTQVTVSS							25.1	0.00483	0.00532	0.957	1.19	3.11
anti-IL-12Rβ2 VHH clone 21054 (VHH, not shown: small tags and cut ends, tested as periplasmic extract; also called 3CRHM18) VHH: QVQLQESGGGLVQDGGSLRLSCAASGRTFSNYAMAWFRQAPGTEREFVAGLSGSGGDTAFYDNSVMGRFTISRDSAKNTMWLQINNLKPEDTAVYYCAAATHVVVSYGLVRKRGTYDYWGQGTQVTVSS							45	0.00618	0.00548	0.699	1.14	3.61
